Measured values from PMC9190012, “Heparin activation of protein Z-dependent protease inhibitor (ZPI) allosterically blocks protein Z activation through an extended heparin-binding site” (The Journal of Biological Chemistry, 2022).

How the values were obtained:
[1] = molecular target: T1, NBD-ZPI–PZ interactions (Homo sapiens, UniProt Q9UK55, C190A/C285S/K260C); experiment: Titrations of NBD-ZPI with PZ in absence and presence of fixed levels of heparin; format: binding; settings: no heparin; 50 nM NBD-ZPI, 0.2 M NaCl buffer; read-out: ZPI–PZ KD,PZapp
T1 construct: made in house; host or cells: Escherichia coli
T1 sequence (Q9UK55 22-444 C190A/K260C/C285S): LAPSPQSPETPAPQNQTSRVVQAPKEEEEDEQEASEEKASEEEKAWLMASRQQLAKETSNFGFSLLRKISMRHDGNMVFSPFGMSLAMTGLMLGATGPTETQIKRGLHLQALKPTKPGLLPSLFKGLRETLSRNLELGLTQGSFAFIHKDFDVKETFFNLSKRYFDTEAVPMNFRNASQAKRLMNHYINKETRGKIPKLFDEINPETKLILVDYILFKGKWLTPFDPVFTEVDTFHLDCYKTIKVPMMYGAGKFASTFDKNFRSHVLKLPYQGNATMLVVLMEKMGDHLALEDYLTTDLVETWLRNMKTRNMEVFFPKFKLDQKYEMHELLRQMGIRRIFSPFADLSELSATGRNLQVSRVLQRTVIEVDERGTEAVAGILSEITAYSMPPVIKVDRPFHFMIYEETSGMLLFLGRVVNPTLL
Experimental: The effect of heparin on PZ binding to ZPI was measured by titrations of 50 nM NBD-ZPI with PZ in the absence and presence of different fixed levels of heparins of various lengths in the higher ionic strength buffer used for emission spectra. Titrations were monitored from the enhancement of NBD-ZPI fluorescence that signals PZ binding. These titrations were fit by the quadratic binding equation, ΔFobs/F0=ΔFmax/F0×[ZPI]0+[PZ]0+KD,PZapp−([ZPI]0+[PZ]0+KD,PZapp)^2−4×[ZPI]0×[PZ]0/2×[ZPI]0 where ΔFobs/Fo and ΔFmax/Fo are the observed and maximal fluorescence changes after addition of PZ expressed relative to the initial free NBD-ZPI fluorescence, respectively, and KD,PZapp = KD,PZ × (1 + [H]o/KD,H) is the apparent dissociation constant for the ZPI–PZ interaction in the absence or presence of heparin. The fitted parameters were KD,PZapp and ΔFmax/Fo.

[2] = molecular target: T2, K239C-NBD-ZPI (Homo sapiens, UniProt Q9UK55, C190A/C285S/K260C); experiment: Fluorescence emission spectra of K239C-NBD-ZPI with PZ and heparin; format: binding; settings: saturating PZ added to NBD-labeled ZPI
T2 construct: made in house; host or cells: Escherichia coli
T2 sequence (Q9UK55 22-444 C190A/K260C/C285S): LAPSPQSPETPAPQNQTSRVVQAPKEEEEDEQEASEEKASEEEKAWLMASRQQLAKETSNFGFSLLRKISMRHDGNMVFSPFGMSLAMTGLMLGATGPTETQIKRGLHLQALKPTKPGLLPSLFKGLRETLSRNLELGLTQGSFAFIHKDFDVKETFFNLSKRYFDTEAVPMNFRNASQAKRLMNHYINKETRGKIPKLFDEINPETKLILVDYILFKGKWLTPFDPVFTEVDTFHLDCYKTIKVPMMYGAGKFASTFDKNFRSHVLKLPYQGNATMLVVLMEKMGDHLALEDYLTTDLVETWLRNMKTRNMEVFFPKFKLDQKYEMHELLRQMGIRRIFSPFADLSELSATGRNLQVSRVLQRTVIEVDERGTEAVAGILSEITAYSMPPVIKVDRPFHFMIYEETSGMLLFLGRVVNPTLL
Experimental: Fluorescence emission spectra of NBD-ZPI (50–100 nM) were measured in the absence or the presence of PZ and heparin in 20 mM Tris buffer (pH 7.4), 0.2 M NaCl, 0.1% PEG 8000, 1 mg/ml bovine serum albumin (BSA), and 2.5 mM CaCl2 with an SLM 8000 spectrofluorometer with excitation at 480 nm over the emission range of 500 to 600 nm. Intrinsic protein fluorescence of WT and mutant ZPIs (200 nM to 1 μM) was measured in the same buffer without BSA, with excitation at 280 nm over the emission range of 300 to 400 nm. Emission was monitored in 5-nm steps with 5 to 10 s of integrations per step. Spectra were obtained in triplicate and averaged. Buffer, buffer plus PZ, or buffer plus heparin background spectra were subtracted, and dilution corrections were made for added PZ or heparin (<10%).

[3] = molecular target: T3, FXa (Homo sapiens, UniProt P00742); experiment: PZ-accelerated ZPI–FXa reactions: kinetics and stoichiometry of inhibition; format: biochemical; settings: for SI / ka,app × SI / ka,app × SI relative to WT: PZ-accelerated; for ka,app: equimolar PZ, 25 μM phospholipid, 5 mM CaCl2, pH 7.4, 25 °C; for PZ enhancement: ratio of PZ-accelerated to unaccelerated ka,app × SI
T3 construct: purchased Enzyme Research Laboratories
How it was run: (§1)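 Human FXa (∼0.5 nM) with ZPI 10–900 nM, ± optimal H50, pseudo-first-order; PZ-accelerated runs used PZ equimolar with ZPI, 25 μM lipid, 5 mM CaCl2, ZPI 10–40 nM. Residual activity via substrate-quench initial rates; ka,app from kobs vs [ZPI] slope, kd fixed at 10^−4 s^−1. SI from residual activity vs inhibitor:protease ratio (FXa 50–100 nM, 25 °C), dissociation-corrected.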

[4] = molecular target: T3, FXa; experiment: Unaccelerated ZPI–FXa reactions: kinetics and stoichiometry of inhibition; format: biochemical; settings: for ka,app: absence of PZ, 2.5 mM CaCl2, pH 7.4, 25 °C
How it was run: as §1

[5] = molecular target: T3, FXa; experiment: H50 heparin-accelerated ZPI–FXa reactions: kinetics and stoichiometry of inhibition; format: biochemical; settings: for SI / ka,app × SI / ka,app × SI relative to WT: 1 μM H50; for ka,app: 1 μM H50, 2.5 mM CaCl2, pH 7.4, 25 °C; for H50 rate enhancement: ratio of heparin-accelerated to unaccelerated ka,app × SI
How it was run: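 Pseudo-first-order inhibition of ~0.5 nM FXa by ZPI (70 nM for H50 titration 10^−9–10^−4 M; 10–900 nM for ka,app) at 25 °C, pH 7.4 Tris with 2.5 mM CaCl2; residual activity by fluorogenic substrate, ka,app from kobs vs [ZPI] with kd fixed at 10^−4 s^−1. SI from residual activity vs ZPI:FXa ratio (50–100 nM FXa, ±1 μM H50), dissociation-corrected.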

T3 sequence (P00742 235-488 limits assumed): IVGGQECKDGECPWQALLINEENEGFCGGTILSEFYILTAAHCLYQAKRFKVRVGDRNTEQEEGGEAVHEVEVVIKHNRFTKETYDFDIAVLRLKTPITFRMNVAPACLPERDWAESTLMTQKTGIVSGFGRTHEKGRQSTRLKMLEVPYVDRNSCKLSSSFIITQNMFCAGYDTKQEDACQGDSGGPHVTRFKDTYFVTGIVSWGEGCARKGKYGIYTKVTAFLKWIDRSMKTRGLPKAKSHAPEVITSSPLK
T3 sequence (P00742 41-179 limits assumed): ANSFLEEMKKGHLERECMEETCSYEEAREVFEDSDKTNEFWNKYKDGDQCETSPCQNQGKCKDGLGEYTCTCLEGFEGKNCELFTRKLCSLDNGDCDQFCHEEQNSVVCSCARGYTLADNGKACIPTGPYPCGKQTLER

“PZ: human plasma protein Z, cofactor of ZPI, from Enzyme Research Laboratories” was tested, and the Kd [1] was 9 ± 1.2 nM and the “enhancement in NBD fluorescence” value [2] was about 300%.

B1: D298K/E301R/T302K/T309K: ZPI mutant with the helix H heparin-binding site of PCI grafted onto homologous ZPI residues (protein, UniProt Q9UK55 22-444, looked up, variant D298K E301R T302K T309K)
Protein Z-dependent protease …: LAPSPQSPETPAPQNQTSRVVQAPKEEEEDEQEASEEKASEEEKAWLMASRQQLAKETSNFGFSLLRKISMRHDGNMVFSPFGMSLAMTGLMLGATGPTETQIKRGLHLQALKPTKPGLLPSLFKGLRETLSRNLELGLTQGSFAFIHKDFDVKETFFNLSKRYFDTECVPMNFRNASQAKRLMNHYINKETRGKIPKLFDEINPETKLILVDYILFKGKWLTPFDPVFTEVDTFHLDKYKTIKVPMMYGAGKFASTFDKNFRCHVLKLPYQGNATMLVVLMEKMGDHLALEDYLTTKLVRKWLRNMKKRNMEVFFPKFKLDQKYEMHELLRQMGIRRIFSPFADLSELSATGRNLQVSRVLQRTVIEVDERGTEAVAGILSEITAYSMPPVIKVDRPFHFMIYEETSGMLLFLGRVVNPTLL
With B1 the SI [3] was 2.2 ± 0.1 moles ZPI/mole FXa, the “ka,app × SI” value [3] was 1.8 ± 0.3 × 10^7 M^−1 s^−1 and the “ka,app × SI relative to WT” value [3] was “(0.41)”. For the same molecule, the “ka,app” value [3] was 8.4 ± 1.2 × 10^6 M^−1 s^−1, the PZ enhancement [3] was 692 and the SI [4] was 3.6 ± 0.3 moles ZPI/mole FXa. The “ka,app × SI” value [4] was 2.6 ± 0.2 × 10^4 M^−1 s^−1, the “ka,app × SI relative to WT” value [4] was “(1.6)” and the “ka,app” value [4] was 7.3 ± 0.1 × 10^3 M^−1 s^−1. The SI [5] was 4.6 ± 0.1 moles ZPI/mole FXa, the “ka,app × SI” value [5] was 3.9 ± 0.2 × 10^6 M^−1 s^−1 and the “ka,app × SI relative to WT” value [5] was “(3.2)”. The “ka,app” value [5] was 8.3 ± 0.4 × 10^5 M^−1 s^−1 and the H50 rate enhancement [5] was 150 fold.

B2: K253A: ZPI helix H site mutant (protein, UniProt Q9UK55 22-444, looked up, variant K253A)
Protein Z-dependent protease …: LAPSPQSPETPAPQNQTSRVVQAPKEEEEDEQEASEEKASEEEKAWLMASRQQLAKETSNFGFSLLRKISMRHDGNMVFSPFGMSLAMTGLMLGATGPTETQIKRGLHLQALKPTKPGLLPSLFKGLRETLSRNLELGLTQGSFAFIHKDFDVKETFFNLSKRYFDTECVPMNFRNASQAKRLMNHYINKETRGKIPKLFDEINPETKLILVDYILFKGKWLTPFDPVFTEVDTFHLDKYKTIKVPMMYGAGAFASTFDKNFRCHVLKLPYQGNATMLVVLMEKMGDHLALEDYLTTDLVETWLRNMKTRNMEVFFPKFKLDQKYEMHELLRQMGIRRIFSPFADLSELSATGRNLQVSRVLQRTVIEVDERGTEAVAGILSEITAYSMPPVIKVDRPFHFMIYEETSGMLLFLGRVVNPTLL
For B2, the SI [3] was 2.4 ± 0.1 moles ZPI/mole FXa, the “ka,app × SI” value [3] was 7.2 ± 0.1 x 10^6 M^−1 s^−1 and the “ka,app × SI relative to WT” value [3] was “(0.16)”. For the same molecule, the “ka,app” value [3] was 3.0 ± 0.2 × 10^6 M^−1 s^−1, the PZ enhancement [3] was 847 and the SI [4] was 2.1 ± 0.1 moles ZPI/mole FXa. For the same molecule, the “ka,app × SI” value [4] was 8.5 ± 1.2 × 10^3 M^−1 s^−1, the “ka,app × SI relative to WT” value [4] was “(0.53)” and the “ka,app” value [4] was 4.1 ± 0.4 × 10^3 M^−1 s^−1. The SI [5] was 1.5 ± 0.1 moles ZPI/mole FXa, the “ka,app × SI” value [5] was 4.8 ± 0.7 × 10^5 M^−1 s^−1 and the “ka,app × SI relative to WT” value [5] was “(0.40)”. For the same molecule, the “ka,app” value [5] was 3.2 ± 0.2 × 10^5 M^−1 s^−1 and the H50 rate enhancement [5] was 56 fold.

B3: R263A: ZPI helix H site mutant (protein, UniProt Q9UK55 22-444, looked up, variant R263A)
Protein Z-dependent protease …: LAPSPQSPETPAPQNQTSRVVQAPKEEEEDEQEASEEKASEEEKAWLMASRQQLAKETSNFGFSLLRKISMRHDGNMVFSPFGMSLAMTGLMLGATGPTETQIKRGLHLQALKPTKPGLLPSLFKGLRETLSRNLELGLTQGSFAFIHKDFDVKETFFNLSKRYFDTECVPMNFRNASQAKRLMNHYINKETRGKIPKLFDEINPETKLILVDYILFKGKWLTPFDPVFTEVDTFHLDKYKTIKVPMMYGAGKFASTFDKNFACHVLKLPYQGNATMLVVLMEKMGDHLALEDYLTTDLVETWLRNMKTRNMEVFFPKFKLDQKYEMHELLRQMGIRRIFSPFADLSELSATGRNLQVSRVLQRTVIEVDERGTEAVAGILSEITAYSMPPVIKVDRPFHFMIYEETSGMLLFLGRVVNPTLL
In the case of B3, the SI [3] is reported as 3.1 ± 0.1 moles ZPI/mole FXa, the “ka,app × SI” value [3] is reported as 2.1 ± 0.2 x 10^7 M^−1 s^−1 and the “ka,app × SI relative to WT” value [3] is reported as “(0.48)”. The “ka,app” value [3] was 6.9 ± 0.5 × 10^6 M^−1 s^−1, the PZ enhancement [3] was 3359 and the SI [4] was 2.7 ± 0.5 moles ZPI/mole FXa. The “ka,app × SI” value [4] was 6.4 ± 1.3 × 10^3 M^−1 s^−1, the “ka,app × SI relative to WT” value [4] was “(0.40)” and the “ka,app” value [4] was 2.4 ± 0.1 × 10^3 M^−1 s^−1. For the same molecule, the SI [5] was 2.8 ± 0.1 moles ZPI/mole FXa, the “ka,app × SI” value [5] was 3.5 ± 0.4 × 10^5 M^−1 s^−1 and the “ka,app × SI relative to WT” value [5] was “(0.29)”. The “ka,app” value [5] was 1.3 ± 0.1 × 10^5 M^−1 s^−1 and the H50 rate enhancement [5] was 55 fold.
